The numbers were not newly measured in PMC6387150, which cites them from elsewhere.

The target in this data set is IL-18 (Homo sapiens) (UniProt Q14116).
IL-18 (Homo sapiens), sequence (Q14116 37-193): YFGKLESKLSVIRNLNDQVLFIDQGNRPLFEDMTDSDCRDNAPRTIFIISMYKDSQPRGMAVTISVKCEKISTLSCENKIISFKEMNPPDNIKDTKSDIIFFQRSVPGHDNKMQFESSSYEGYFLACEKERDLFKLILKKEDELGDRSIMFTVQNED

IL-18BP, sequence (O95998 31-194): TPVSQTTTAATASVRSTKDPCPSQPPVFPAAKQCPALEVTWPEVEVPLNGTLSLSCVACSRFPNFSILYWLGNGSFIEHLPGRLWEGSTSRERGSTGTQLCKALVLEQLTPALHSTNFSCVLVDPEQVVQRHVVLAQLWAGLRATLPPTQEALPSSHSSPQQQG

A word on the Kd: it is the free concentration of one partner at which half of the binding sites on the other are occupied at equilibrium, for simple one-to-one binding. With IL-18BP (from UniProt O95998), the Kd is 0.4 nM.
